Here are results for one substance from article PMC5581300.

In experiment [1] the target is Plasma Membrane Calcium ATPase 4 (mouse (endogenous in sperm)) (UniProt Q6Q477). Nature of the experiment: FRET or BRET.
Experiment [2] has the same target. Nature of the experiment: FRET or BRET. This is another data set of the same source. (Bioluminescence resonance energy transfer reports proximity on the nanometre scale.)

Like-named read-outs stand apart in the source and are kept apart here.

Chain of UniProt Q6Q477 (Q6Q477 whole entry): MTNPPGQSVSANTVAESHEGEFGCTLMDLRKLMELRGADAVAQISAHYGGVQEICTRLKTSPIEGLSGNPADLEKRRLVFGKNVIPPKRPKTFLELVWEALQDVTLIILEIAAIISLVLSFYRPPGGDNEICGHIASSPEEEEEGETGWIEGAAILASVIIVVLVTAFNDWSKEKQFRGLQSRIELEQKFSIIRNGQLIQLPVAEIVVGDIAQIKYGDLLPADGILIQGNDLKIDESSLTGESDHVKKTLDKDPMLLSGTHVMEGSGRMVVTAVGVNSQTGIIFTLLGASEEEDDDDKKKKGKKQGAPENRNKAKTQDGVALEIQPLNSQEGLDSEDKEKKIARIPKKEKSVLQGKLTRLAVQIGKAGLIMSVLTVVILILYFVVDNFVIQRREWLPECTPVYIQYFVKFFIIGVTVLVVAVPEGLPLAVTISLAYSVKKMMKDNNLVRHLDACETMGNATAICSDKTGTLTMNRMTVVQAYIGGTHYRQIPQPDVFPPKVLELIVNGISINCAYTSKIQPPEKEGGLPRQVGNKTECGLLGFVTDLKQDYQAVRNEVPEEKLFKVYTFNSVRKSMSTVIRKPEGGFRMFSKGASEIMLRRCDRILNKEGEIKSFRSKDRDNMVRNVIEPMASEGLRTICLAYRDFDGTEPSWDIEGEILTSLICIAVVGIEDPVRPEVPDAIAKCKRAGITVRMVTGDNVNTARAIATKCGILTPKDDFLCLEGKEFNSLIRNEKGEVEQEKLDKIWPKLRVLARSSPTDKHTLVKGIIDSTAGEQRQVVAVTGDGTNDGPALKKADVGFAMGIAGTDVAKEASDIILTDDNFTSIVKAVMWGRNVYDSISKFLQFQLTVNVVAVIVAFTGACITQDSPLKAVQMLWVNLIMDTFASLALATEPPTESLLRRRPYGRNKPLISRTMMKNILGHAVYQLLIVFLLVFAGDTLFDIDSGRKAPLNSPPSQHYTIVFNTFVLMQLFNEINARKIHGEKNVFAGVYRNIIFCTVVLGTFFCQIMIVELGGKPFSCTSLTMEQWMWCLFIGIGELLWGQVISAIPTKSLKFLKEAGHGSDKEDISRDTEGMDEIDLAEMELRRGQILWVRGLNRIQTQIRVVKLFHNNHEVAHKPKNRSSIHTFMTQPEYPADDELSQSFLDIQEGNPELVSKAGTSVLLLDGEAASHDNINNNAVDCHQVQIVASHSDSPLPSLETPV

In the case of “neuronal nitric oxide synthase (from UniProt Q9Z0J4 1-1429) (enzyme)”, the figures for the FRET efficiency in experiment [1] and in experiment [2] were 6% and 24%, respectively.
